Measured values published in patent US20170267768A1 (University of California, published 2017).

Key:
[1] = biological target: T1, His6-tagged recombinant human EphA2 protein (human, UniProt P29317 25-534); experiment: BLI (Octet Red 96); His6-EphA2 on anti-His sensors; scFv-PEG-DSPE conjugate at 4.0 ug/ml after thermal stress
T1 construct: also called his-tagged recombinant, human EphA2; human EphA2 with c-terminal His6
Excerpt: (§1) A nucleic acid encoding human EphA2 with c-terminal His6 appended was cloned into expression vector pCEP4 (Invitrogen® # V044-50) and transiently expressed in FreeStyle™ 293 cells (Invitrogen® #K900001) following polyethylenenimine transfection. The His6-tagged recombinant human EphA2 protein was purified from the cell culture medium using Ni-NTA Sepharose™ resin (Quiagen®, USA). Anti-His sensors for the fortéBIO® Octet Red 96 system (fortéBIO®-Pall® #18-5116) were coated with his-tagged recombinant, human EphA2 at concentration of 10 μg/ml protein for 300 sec, and a background run was carried out in PBS for 60 sec. For scFv-PEG-DSPE conjugates, the sensors were then incubated with 2.5 μg/ml (Study 1) or 4.0 μg/ml (Study 2) of the conjugate in PBS, pH 7.4, and the slopes of association curves were determined between 3-13 seconds of incubation, corrected for the buffer-only background, and compared across the variants. ScFv-linked liposomes were incubated with the sensors in PBS at 0.025 mM of liposome phospholipid, the slopes of the association curves were determined between 3-20 seconds of incubation, corrected for the buffer-only background, and compared across the variants.
(§2) Results are shown below in Table 6, in which column A gives scFv identifiers; column B indicates percent yield of scFv/lipopolymer linker conjugates; column C gives percent scFv-conjugate (not liposome-bound) EphA2 binding on-rate; column D gives percent scFv-conjugated-liposome EphA2 binding on-rate; and columns E (Study 1) and F (study 2) give percent antigen binding on-rate remaining in the scFv-conjugate (not liposome-bound) following thermal stress.

[2] = biological target: T1, His6-tagged recombinant human EphA2 …; experiment: BLI (Octet Red 96); His6-EphA2 on anti-His sensors; scFv-PEG-DSPE conjugate at 2.5 ug/ml after thermal stress
Excerpt: as §1, §2

[3] = biological target: Staphylococcus aureus Protein A (Staphylococcus aureus, UniProt P38507 37-477); experiment: Protein A binding measured as in Example 1, compared to TS1C
Experimental: Protein A binding for multiple samples was determined as follows: scFvs expressed by mammalian cells were obtained from cultures by centrifugation at 4000 g for 15 minutes to remove cells. The scFv titer in the supernatant was determined using Fortebio. Protein A binding was assayed using a 96 well Protein A plate (Protein A 96 well protein purification plate (GE Healthcare: Life Sciences, Protein A HP MultiTrap®) which contains Protein A-conjugated resin in wells with porous bottoms, allowing liquid in the wells to be collected from underneath via centrifugation or suction. Each well of the plate was washed with 1×PBS, and supernatant containing 250 μg of protein was loaded into each well. The supernatant is then separated from the Protein A resin using a vacuum manifold (Whatman®) with 10 mbar of pressure and the flow-through from each well separately collected into empty wells of a standard 96 well plate. The wells of the Protein A plate were then washed with 600 μL of 1×PBS (pH 7.6). To elute the resin-bound Ab, 200 μL of 0.1M acetic acid was added to each well and incubated at room temperature for 3-10 minutes. The plate was placed over a second plate to capture eluate and centrifuged at 100×g for 2 minutes, and 20 μL of 1M Tris, pH 8.0 was added to neutralize the Abs in the eluate. To determine the percentage of Protein A binding, the concentration of scFv remaining in the flow-through was compared to the amount of protein (250 ug) loaded originally.
The fold improvement in Protein A binding capacity (as compared to TS1C) was measured as described in Example 1.

[4] = biological target: T1, His6-tagged recombinant human EphA2 …; experiment: BLI (Octet Red 96); His6-EphA2 on anti-His sensors; slope of association curve of scFv-PEG-DSPE conjugate; TS1C printed as 100
Excerpt: as §1, §2

[5] = biological target: T1, His6-tagged recombinant human EphA2 …; experiment: BLI (Octet Red 96); His6-EphA2 on anti-His sensors; slope of association curve of scFv-linked liposomes at 0.025 mM phospholipid; TS1C printed as 100
Excerpt: as §1, §2

T1 sequence (P29317 25-534 limits assumed): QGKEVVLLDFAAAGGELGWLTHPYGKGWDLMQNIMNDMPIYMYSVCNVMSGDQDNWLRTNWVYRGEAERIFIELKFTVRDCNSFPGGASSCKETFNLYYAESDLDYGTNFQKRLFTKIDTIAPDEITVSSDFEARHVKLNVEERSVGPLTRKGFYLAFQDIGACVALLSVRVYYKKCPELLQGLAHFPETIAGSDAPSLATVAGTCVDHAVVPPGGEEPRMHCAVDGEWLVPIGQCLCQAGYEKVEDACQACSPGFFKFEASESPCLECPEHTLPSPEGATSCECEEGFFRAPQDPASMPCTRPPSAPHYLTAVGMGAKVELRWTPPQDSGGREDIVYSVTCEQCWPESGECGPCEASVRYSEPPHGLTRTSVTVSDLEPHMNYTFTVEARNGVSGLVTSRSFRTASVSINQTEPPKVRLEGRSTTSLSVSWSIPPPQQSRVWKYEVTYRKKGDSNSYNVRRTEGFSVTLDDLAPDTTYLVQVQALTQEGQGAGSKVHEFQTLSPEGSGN

Binder | percent antigen binding on-rate remaining in the scFv-conjugate following thermal stress (Study 2) [1] [%] | percent antigen binding on-rate remaining in the scFv-conjugate following thermal stress (Study 1) [2] [%] | Fold Improvement in Protein A Binding Capacity [3] [fold] | percent scFv-conjugate (not liposome-bound) EphA2 binding on-rate [4] [%] | percent scFv-conjugated-liposome EphA2 binding on-rate [5] [%]
scFv-3C (scFv, also called clone 3) scFv: QVQLVQSGGGLVQPGGSLRLSCAASGFTFSSYAMHWVRQAPGKGLEWVTVISPDGHNTYYADSVKGRFTISRDNSKNTLYLQMNSLRAEDTAVYYCARASVGATGPFDIWGQGTLVTVSSASTGGGGSGGGGSGGGGSGGGGSSSELTQPPSVSVAPGQTVTITCQGDSLRSYYASWYQQKPGTAPKLLIYGENNRPSGVPDRFSGSSSGTSASLTITGAQAEDEADYYCNSRDSSGTHLTVFGGGTKLTVLGGGSGGC | 46.9 | 56.5 | 6 | 112 | 119
scFv-2C (scFv, also called clone 2) scFv: QVQLVQSGGGLVQPGGSLRLSCAASGFTFSSYAMHWVRQAPGKGLEWVSVISPAGRNKYYADSVKGRFTISRDNSKNTLYLQMNSLRAEDTAVYYCARASVGATGPFDIWGQGTLVTVSSASTGGGGSGGGGSGGGGSGGGGSSSELTQPPSVSVAPGQTVTITCQGDSLRSYYASWYQQKPGTAPKLLIYGENNRPSGVPDRFSGSSSGTSASLTITGAQAEDEADYYCNSRDSSGTHLTVFGGGTKLTVLGGGSGGC | 26.9 | 44.6 | 5.5 | 105 | 117
scFv-19C (scFv) scFv: QVQLVQSGGGLVQPGGSLRLSCAASGFTFSSYAMHWVRQAPGKGLEWVSVISPPGHNTYYADSVKGRFTISRDNSKNTLYLQMNSLRAEDTAVYYCARASVGATGPFDIWGQGTLVTVSSASTGGGGSGGGGSGGGGSGGGGSSSELTQPPSVSVAPGQTVTITCQGDSLRSYYASWYQQKPGTAPKLLIYGENNRPSGVPDRFSGSSSGTSASLTITGAQAEDEADYYCNSRDSSGTHLTVFGGGTKLTVLGGGSGGC | 5.1 |  |  | 112 | 129
scFv-11C (scFv, also called clone 11) scFv: QVQLVQSGGGLVQPGGSLRLSCAASGFTFSSYAMHWVRQAPGKGLEWVAVISHHGSNTYYADSVKGRFTISRDNSKNTLYLQMNSLRAEDTAVYYCARASVGATGPFDIWGQGTLVTVSSASTGGGGSGGGGSGGGGSGGGGSSSELTQPPSVSVAPGQTVTITCQGDSLRSYYASWYQQKPGTAPKLLIYGENNRPSGVPDRFSGSSSGTSASLTITGAQAEDEADYYCNSRDSSGTHLTVFGGGTKLTVLGGGSGGC | -0.09 | 1.6 | 8.5 | 109 | 120
scFv-7C (scFv, also called clone 7) scFv: QVQLVQSGGGLVQPGGSLRLSCAASGFTFSSYAMHWVRQAPGKGLEWVSVISPAGPNTYYADSVKGRFTISRDNSKNTLYLQMNSLRAEDTAVYYCARASVGATGPFDIWGQGTLVTVSSASTGGGGSGGGGSGGGGSGGGGSSSELTQPPSVSVAPGQTVTITCQGDSLRSYYASWYQQKPGTAPKLLIYGENNRPSGVPDRFSGSSSGTSASLTITGAQAEDEADYYCNSRDSSGTHLTVFGGGTKLTVLGGGSGGC | 4.8 | 5.8 | 10.3 | 110 | 119
scFv-9C (scFv, also called clone 9) scFv: QVQLVQSGGGLVQPGGSLRLSCAASGFTFSSYAMHWVRQAPGKGLEWVTVISPNGHNTYYADSVKGRFTISRDNSKNTLYLQMNSLRAEDTAVYYCARASVGATGPFDIWGQGTLVTVSSASTGGGGSGGGGSGGGGSGGGGSSSELTQPPSVSVAPGQTVTITCQGDSLRSYYASWYQQKPGTAPKLLIYGENNRPSGVPDRFSGSSSGTSASLTITGAQAEDEADYYCNSRDSSGTHLTVFGGGTKLTVLGGGSGGC | 12.2 | 25.2 |  | 114 | 118
scFv-16C (scFv) scFv: QVQLVQSGGGLVQPGGSLRLSCAASGFTFSSYAMHWVRQAPGKGLEWVSVISNNGHNTYYADSVKGRFTISRDNSKNTLYLQMNSLRAEDTAVYYCARASVGATGPFDIWGQGTLVTVSSASTGGGGSGGGGSGGGGSGGGGSSSELTQPPSVSVAPGQTVTITCQGDSLRSYYASWYQQKPGTAPKLLIYGENNRPSGVPDRFSGSSSGTSASLTITGAQAEDEADYYCNSRDSSGTHLTVFGGGTKLTVLGGGSGGC | 4.6 |  |  | 128 | 113
scFv-10C (scFv, also called clone 10) scFv: QVQLVQSGGGLVQPGGSLRLSCAASGFTFSSYAMHWVRQAPGKGLEWVSAISPPGHNTYYADSVKGRFTISRDNSKNTLYLQMNSLRAEDTAVYYCARASVGATGPFDIWGQGTLVTVSSASTGGGGSGGGGSGGGGSGGGGSSSELTQPPSVSVAPGQTVTITCQGDSLRSYYASWYQQKPGTAPKLLIYGENNRPSGVPDRFSGSSSGTSASLTITGAQAEDEADYYCNSRDSSGTHLTVFGGGTKLTVLGGGSGGC | 98.8 | 88.9 | 12.3 | 104 | 110
scFv-8C (scFv, also called clone 8) scFv: QVQLVQSGGGLVQPGGSLRLSCAASGFTFSSYAMHWVRQAPGKGLEWVTVISPSGHNTYYADSVKGRFTISRDNSKNTLYLQMNSLRAEDTAVYYCARASVGATGPFDIWGQGTLVTVSSASTGGGGSGGGGSGGGGSGGGGSSSELTQPPSVSVAPGQTVTITCQGDSLRSYYASWYQQKPGTAPKLLIYGENNRPSGVPDRFSGSSSGTSASLTITGAQAEDEADYYCNSRDSSGTHLTVFGGGTKLTVLGGGSGGC | 7.3 | 19.8 |  | 113 | 133
scFv-13C (scFv, also called clone 13) scFv: QVQLVQSGGGLVQPGGSLRLSCAASGFTFSSYAMHWVRQAPGKGLEWVTVISPTGANTYYADSVKGRFTISRDNSKNTLYLQMNSLRAEDTAVYYCARASVGATGPFDIWGQGTLVTVSSASTGGGGSGGGGSGGGGSGGGGSSSELTQPPSVSVAPGQTVTITCQGDSLRSYYASWYQQKPGTAPKLLIYGENNRPSGVPDRFSGSSSGTSASLTITGAQAEDEADYYCNSRDSSGTHLTVFGGGTKLTVLGGGSGGC | 9 | 18.2 |  | 105 | 120
